{"source": "patent US5217864", "about": "“Replication initiator protein complex and methods of use thereof” (The Rockefeller University)", "target": "OTF1/NFIII (UniProt P14859 P14859:1-743)", "sequence (P14859 whole entry, the tested form may be a part, one chain of several)": "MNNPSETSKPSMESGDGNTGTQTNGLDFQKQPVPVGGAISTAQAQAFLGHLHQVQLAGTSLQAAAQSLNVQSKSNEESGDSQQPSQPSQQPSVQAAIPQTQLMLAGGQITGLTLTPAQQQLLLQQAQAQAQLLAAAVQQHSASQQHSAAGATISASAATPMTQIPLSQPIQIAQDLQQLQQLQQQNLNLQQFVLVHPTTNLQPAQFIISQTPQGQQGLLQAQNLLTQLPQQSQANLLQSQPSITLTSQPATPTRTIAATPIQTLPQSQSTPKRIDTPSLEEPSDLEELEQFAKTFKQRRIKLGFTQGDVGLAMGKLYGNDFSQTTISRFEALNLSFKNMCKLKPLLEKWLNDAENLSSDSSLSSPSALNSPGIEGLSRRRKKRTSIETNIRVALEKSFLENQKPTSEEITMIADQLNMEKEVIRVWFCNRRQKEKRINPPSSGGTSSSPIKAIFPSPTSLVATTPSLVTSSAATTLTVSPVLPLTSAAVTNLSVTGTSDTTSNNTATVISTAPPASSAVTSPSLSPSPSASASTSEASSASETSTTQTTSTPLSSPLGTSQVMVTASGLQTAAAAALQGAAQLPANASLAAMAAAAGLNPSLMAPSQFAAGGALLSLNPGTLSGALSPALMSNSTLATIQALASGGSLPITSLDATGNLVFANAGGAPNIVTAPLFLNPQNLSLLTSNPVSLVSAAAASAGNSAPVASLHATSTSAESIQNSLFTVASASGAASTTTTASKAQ", "test": "EMSA; data not shown", "data": [{"binder": "OTF1 site at 5' end of 280 bp fragment (dsDNA) DNA 1: ATTTTCAT DNA 2: ATGAAAAT", "values": [{"measurement": "binding result", "result": "binds"}]}]}
